Values of other authors in PMC7538161.

Target: CaMKII calmodulin-binding element peptide (Peptide A) calmodulin-binding element peptide (Homo sapiens) (UniProt Q9UQM7)
Sequence (Q9UQM7 290-309): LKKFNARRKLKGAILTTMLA

Chain of CaMKII hub hub domain (Q9UQM7 345-475): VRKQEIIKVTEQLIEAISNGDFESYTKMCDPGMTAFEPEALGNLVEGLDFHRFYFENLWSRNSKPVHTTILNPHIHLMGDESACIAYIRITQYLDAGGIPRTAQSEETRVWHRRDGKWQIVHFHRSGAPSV

Kd: 90 µM
Substance: CaMKII hub hub domain (from UniProt Q9UQM7)
